Data reported in patent US20190016796A1.

Key:
[1] = molecular target: human interleukin-2 (human) (UniProt P60568); assay: SPR, antibody amine-coupled to GLM chip, hIL-2 as analyte (100 nM, three-fold dilutions)
[2] = molecular target: murine interleukin-2 (mouse) (UniProt P04351); assay: SPR, MAB602 amine-coupled to GLM chip, mouse IL-2 as analyte at concentrations >1 nM
[3] = molecular target: human interleukin-2 (human) (UniProt P60568); assay: sandwich ELISA, hIL-2 captured on coated 5344, biotinylated MAB602 as detector, no competitor (well H11)

Sequence of human interleukin-2 (human) (P60568 21-153 limits assumed): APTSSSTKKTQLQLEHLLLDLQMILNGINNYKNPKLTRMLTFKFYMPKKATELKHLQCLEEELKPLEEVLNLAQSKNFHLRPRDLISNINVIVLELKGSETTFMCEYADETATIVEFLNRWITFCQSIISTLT
Sequence of murine interleukin-2 (mouse) (P04351 21-169 limits assumed): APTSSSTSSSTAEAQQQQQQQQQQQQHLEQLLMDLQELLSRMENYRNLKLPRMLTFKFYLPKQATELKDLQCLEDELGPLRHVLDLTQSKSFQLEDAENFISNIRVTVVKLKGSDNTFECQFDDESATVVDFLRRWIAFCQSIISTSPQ

Kd [1]: 9.7 nM
koff [1]: 0.000494 s⁻¹
response units (RU) [2]: > 10 RU
absorbance (OD450) [3]: 1.1 OD450
B1: commercially available anti-human IL-2 monoclonal antibody MAB602 (antibody, from another filing, V domains shown)
VH: EVQLQESGPGLVAPSQSLSITCTVSGFSLTNYDISWIRQPPGKGLEWLGVIWTGGGTNYNSGFMSRLSITKDNSKSQVFLKMNSLQTDDTAIYYCVRQGRTPYWGQGTLVTVSA
VL: DIQVTQSPSSLSVSLGDRVTITCKASKDIYNRLAWYQQKPGNAPRLLISGATSLETGVPSRFSGSGSGKDYTLTITSLQTEDVATYYCQQFWGTPYTFGGGTKLEIKR
